According to article PMC3683248 (Structure (London, England : 1993), 2009):

T1: V3 peptide of HIV-1 clade B strain MN (HIV-1 clade B, isolate MN)
T1 chain: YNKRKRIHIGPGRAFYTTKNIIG

T2: V3 peptide NY/5 (HIV-1 group M subtype B, isolate NY5, strain)
T2 chain: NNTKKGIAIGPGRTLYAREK

B1: Fab fragment of human monoclonal antibody 537-10D (Fab, V domains shown)
VH: QVQLVQSGGGLVQPGGSLRLSCVASGFTFNNYWMSWVRQAPGKGLEWVANIKQDGNDKYYVDSVKGRFTISRDNAKNSLFLQMNSLRAEDTAVYFCAREFSSYTDHLEYYYDYYYMDVWGKGTTVTVSS
VL: QSALTQPASVSGSPGQSITISCTGTSTDVNGYNYVSWYQQYAGKAPKLIIFDVSKRPSGVSNRFSGSKSGDTASLTISGLQAEDEADYHCSSYTSSTPYVLFGGGTKLTVL
B2: human monoclonal antibody 447-52D (IgG3, lambda) (antibody, V domains shown)
VH: EVQLVESGGGLVKPGGSLRLTCVASGFTFSDVWLNWVRQAPGKGLEWVGRIKSRTDGGTTDYAASVKGRFTISRDDSKNTLYLQMNSLKTEDTAVYSCTTDGFIMIRGVSEDYYYYYMDVWGKGTTVTVSS
VL: QSVLTQPPSVSAAPGQKVTISCSGSSSNIGNNYVLWYQQFPGTAPKLLIYGNNKRPSGIPDRFSGSKSGTSATLGITGLQTGDEADYFCATWDSGLSADWVFGGGTKLTVL

Assays:
[1] = biological target: T1, V3 peptide of HIV-1 clade B strain MN; test: crystal structure
V3 peptide NY/5 = biological target: T2, V3 peptide NY/5; test: ELISA

| Binder | binding result [1] | binding result (V3 peptide NY/5) |
| --- | --- | --- |
| B1 | binds |  |
| B2 |  | binds |
